Laboratory results as given in US11939397B2, “ENTPD2 antibodies, combination therapies, and methods of using the antibodies and combination therapies” (Novartis AG, priority 2018, dated 2024).

Assays:
cyno ENTPD2 = experiment: FACS binding to cyno ENTPD2 expressing cells; set-up: species or system cynomolgus monkey
Protocol: FACS screening: Specific binding of candidate antibodies to endogenously expressed ENTPD2 was assessed by flow cytometry. Cells were rinsed thoroughly with 1×PBS and treated with Accutase (Millipore #SCR005) to lift from growth plates and resuspended at approximately 1×10^5 cells/90 μL in 1×FACS buffer (2% FBS+0.1% NaN3 in PBS). In a 96-well U-bottom plate, 10 μL of 10× antibody solution in FACS buffer was pre-seeded and 90 μL of cell suspension was added. Cell were incubated for 30 minutes at 4° C., washed 1× with cold PBS and resuspended in 100 μL of 1:500 secondary antibody 1×FACS buffer (Allophycocyanin conjugated F(ab′)2 goat anti-human IgG, Fcγ specific; Jackson Immunoresearch, Cat #109-136-098). After additional incubation for 15 min at 4° C., cells were washed twice with PBS and resuspended in 100 μL of 1×FACS buffer with 4 μg/mL propidium iodide (Life Technologies, Cat #P3566). Geometric mean fluorescence intensity was calculated on live single cells using FlowJo software.

B16LM3 tumor = experiment: Syngeneic B16LM3 tumor model, survival; format: in vivo, C57BL/6 mice; details: mAb13 15 mg/kg in combination with anti-PD-1 Ab 10 mg/kg i.p., days 1, 5, 8, 12, 15; relative to No Treatment, Isotype Control or anti-PD-1 Ab
Protocol: B16LM3 model was established in female C57BL/6 mice by subcutaneous injection of 0.5×10^6 cells into the right flank of each mouse. The day after implant mice were randomized into treatment groups (n=10 per group). Mice received treatments of either anti-mouse ENTPD2 mAb13 or a non-specific mIgG2a isotype control (clone MOPC-173, BioLegend, San Diego, CA) at a final dose 15 mg/kg on Day 1, 5, 8, 12, 15.
Anti-PD-1 Ab (clone RMP1-14 Bio X Cell, West Lebanon, NH) or non-specific rIgG2a isotype control (clone RTK2758, BioLegend, San Diego, CA) were delivered i.p. at a final dose of 10 mg/kg on days 1, 5, 8, 12, 15. All doses were adjusted to individual mouse body weights.

ENTPD2 = molecular target: T1, ENTPD2 (Homo sapiens, UniProt Q9Y5L3); experiment: FACS binding to human ENTPD2 expressing cells (NIH/3T3); set-up: expressed in transfected cells
T1 sequence (Q9Y5L3 1-495): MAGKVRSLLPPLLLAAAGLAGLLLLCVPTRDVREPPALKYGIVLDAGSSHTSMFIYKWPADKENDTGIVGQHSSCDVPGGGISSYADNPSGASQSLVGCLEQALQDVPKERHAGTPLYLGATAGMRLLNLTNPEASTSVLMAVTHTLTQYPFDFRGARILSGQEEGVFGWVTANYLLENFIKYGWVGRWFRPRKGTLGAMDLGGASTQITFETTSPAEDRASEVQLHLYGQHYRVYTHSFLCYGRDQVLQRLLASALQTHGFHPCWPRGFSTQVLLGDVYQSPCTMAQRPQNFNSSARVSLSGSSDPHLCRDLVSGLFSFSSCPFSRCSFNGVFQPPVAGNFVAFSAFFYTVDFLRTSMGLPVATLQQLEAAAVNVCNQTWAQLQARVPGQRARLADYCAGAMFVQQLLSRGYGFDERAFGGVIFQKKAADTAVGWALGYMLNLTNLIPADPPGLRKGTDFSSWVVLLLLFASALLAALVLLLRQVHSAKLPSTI
Source text: Ten days after fusion, hybridoma plates were screened for the presence of ENTPD2-specific antibodies using flow cytometry to confirm specific binding of candidate antibodies to cell surface-expressed human ENTPD2 using three cell lines: parental NIH/3T3 cells, NIH/3T3 cells stably overexpressing human ENTPD2, and RKO cells (ATCC®), which expresses endogenous human ENTPD2. Cells were rinsed thoroughly with PBS, treated with Accutase (Millipore #SCR005) to lift them from the growth plates, and resuspended in cold PBS. Cells were biotinylated and labeled with a fluorescent dye according to manufacturer's instructions (FluoReporter™ Cell-Surface Biotinylation Kit, Thermo Fisher Scientific Cat #F-20650; PE-Cy7 Steptavidin, ThermoFisher Scientific Cat #SA1012). Cells were resuspended at approximately 1×10^6 cells/ml in FACS buffer (PBS with 2% FBS+0.1% NaN3). In a 384-well plate, 20 μL of hybridoma supernatant was pre-seeded and 20 μL of cell suspension was added. […] Geometric mean fluorescence intensity was calculated on live single cells using FlowJo™ software.
FACS screening: Specific binding of candidate antibodies to endogenously expressed ENTPD2 was assessed by flow cytometry. […] Geometric mean fluorescence intensity was calculated on live single cells using FlowJo software.

cyno ENTPD2, sequence (as listed by the source): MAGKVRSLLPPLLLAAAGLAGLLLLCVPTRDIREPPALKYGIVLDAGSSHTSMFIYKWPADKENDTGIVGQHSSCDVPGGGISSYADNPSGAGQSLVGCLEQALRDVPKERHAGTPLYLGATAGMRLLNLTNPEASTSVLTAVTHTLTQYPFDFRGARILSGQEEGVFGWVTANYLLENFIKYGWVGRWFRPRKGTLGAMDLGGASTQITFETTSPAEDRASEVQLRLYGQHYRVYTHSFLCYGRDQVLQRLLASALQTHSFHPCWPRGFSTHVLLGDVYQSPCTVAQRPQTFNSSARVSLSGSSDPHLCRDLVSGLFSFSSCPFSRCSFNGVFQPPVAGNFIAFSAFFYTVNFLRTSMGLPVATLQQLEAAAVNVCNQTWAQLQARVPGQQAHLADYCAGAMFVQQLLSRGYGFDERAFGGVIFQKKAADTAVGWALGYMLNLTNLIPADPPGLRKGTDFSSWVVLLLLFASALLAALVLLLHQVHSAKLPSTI

B1: mAb13: anti-mouse ENTPD2 monoclonal antibody, VH SEQ ID NO: 191, VL SEQ ID NO: 202 (antibody, V domains shown)
VH: QVQLVQSGAELKQPGQSVKISCKASGYTFTHYGMNWVKQAPGQGLKWMGWINTDTGNPTYADDFKGRFVFSLDTSVSTAYLQISNLKNEDTATYYCVRYGTLYSGYGFFFDSWGQGTLVTVSS
VL: DIMMTQSPSSLSVSAGEKATITCKSSQSLFNSNTNKNYLNWYLQKPGQSPKLLFYYASTRHTGVPDRFIGSGSGTDFTLTITSVQDEDLADYYCQQWYSYPWTFGPGTKLEIK
binding to cyno ENTPD2 (cyno ENTPD2): no binding
mouse survival (B16LM3 tumor): significantly extended mouse survival
binding to human ENTPD2 (ENTPD2): no binding
